Here are results for three molecules from publication PMC5426458, “A practical strategy to design and develop an isoform-specific fluorescent probe for a target enzyme: CYP1A1 as a case study” (Chemical Science, 2016).

For orientation: Km means the concentration of substrate that gives half-maximal velocity.

The target in one data set is T1, CYP1A1 (Homo sapiens, UniProt P04798).
T1 construct: endogenous CYP1A1 in human tissue microsomes, A549 and SKOV3 cells
T1 sequence (P04798 1-512): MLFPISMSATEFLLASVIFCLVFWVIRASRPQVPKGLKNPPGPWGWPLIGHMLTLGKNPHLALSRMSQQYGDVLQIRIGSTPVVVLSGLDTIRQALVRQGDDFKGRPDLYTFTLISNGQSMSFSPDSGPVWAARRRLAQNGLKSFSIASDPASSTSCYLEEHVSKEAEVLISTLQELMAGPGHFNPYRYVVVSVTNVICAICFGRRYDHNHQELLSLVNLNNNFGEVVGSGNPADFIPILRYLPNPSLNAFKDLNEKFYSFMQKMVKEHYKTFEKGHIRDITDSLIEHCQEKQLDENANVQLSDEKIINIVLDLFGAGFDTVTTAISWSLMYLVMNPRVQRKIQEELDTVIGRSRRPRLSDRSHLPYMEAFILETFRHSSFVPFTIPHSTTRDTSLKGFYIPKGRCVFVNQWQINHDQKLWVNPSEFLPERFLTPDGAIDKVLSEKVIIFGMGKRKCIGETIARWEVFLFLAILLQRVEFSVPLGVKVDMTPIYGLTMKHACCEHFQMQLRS
Briefly: inhibition of NBCeN-O-dechloroethylation in human tissue preparations and living cells ([…] in cells). It counts as cell-based.

Substrate in the data set “purified protein”: CCCCN1C(=O)c2cccc3c(OCCCl)ccc(c23)C1=O
Briefly: purified protein. The data set is classed as biochemical, Homo sapiens. The following applies: heme.

In the case of `Oc1ccc(/C=C/c2cc(O)cc(O)c2)cc1` [resveratrol], the “inhibition of NBCeN-O-dechloroethylation in human tissue preparations and living” value against CYP1A1 was “formation of NBHN could be potently inhibited by ABT (a broad CYP inhibitor) and resveratrol (a selective inhibitor of CYP1A1)”.

B1: CYP1A1 (Homo sapiens) (protein)
chain: MLFPISMSATEFLLASVIFCLVFWVIRASRPQVPKGLKNPPGPWGWPLIGHMLTLGKNPHLALSRMSQQYGDVLQIRIGSTPVVVLSGLDTIRQALVRQGDDFKGRPDLYTFTLISNGQSMSFSPDSGPVWAARRRLAQNGLKSFSIASDPASSTSCYLEEHVSKEAEVLISTLQELMAGPGHFNPYRYVVVSVTNVICAICFGRRYDHNHQELLSLVNLNNNFGEVVGSGNPADFIPILRYLPNPSLNAFKDLNEKFYSFMQKMVKEHYKTFEKGHIRDITDSLIEHCQEKQLDENANVQLSDEKIINIVLDLFGAGFDTVTTAISWSLMYLVMNPRVQRKIQEELDTVIGRSRRPRLSDRSHLPYMEAFILETFRHSSFVPFTIPHSTTRDTSLKGFYIPKGRCVFVNQWQINHDQKLWVNPSEFLPERFLTPDGAIDKVLSEKVIIFGMGKRKCIGETIARWEVFLFLAILLQRVEFSVPLGVKVDMTPIYGLTMKHACCEHFQMQLRS
notes: recombinant CYP1A1
For the molecule B1, in “purified protein” (NADPH active site, O-chloroethyl group cleaved, docking suggests pi-pi stacking with Phe-224), the Km amounted to 0.84 µM.

B2: CYP1A2 (Homo sapiens) (protein)
chain: ALSQSVPFSATELLLASAIFCLVFWVLKGLRPRVPKGLKSPPEPWGWPLLGHVLTLGKNPHLALSRMSQRYGDVLQIRIGSTPVLVLSRLDTIRQALVRQGDDFKGRPDLYTSTLITDGQSLTFSTDSGPVWAARRRLAQNALNTFSIASDPASSSSCYLEEHVSKEAKALISRLQELMAGPGHFDPYNQVVVSVANVIGAMCFGQHFPESSDEMLSLVKNTHEFVETASSGNPLDFFPILRYLPNPALQRFKAFNQRFLWFLQKTVQEHYQDFDKNSVRDITGALFKHSKKGPRASGNLIPQEKIVNLVNDIFGAGFDTVTTAISWSLMYLVTKPEIQRKIQKELDTVIGRERRPRLSDRPQLPYLEAFILETFRHSSFLPFTIPHSTTRDTTLNGFYIPKKCCVFVNQWQVNHDPELWEDPSEFRPERFLTADGTAINKPLSEKMMLFGMGKRRCIGEVLAKWEIFLFLAILLQQLEFSVPPGVKVDLTPIYGLTMKHARCEHVQARLRFSIN
notes: recombinant CYP1A2
For the molecule B2, in “purified protein” (NADPH), the Km amounted to 0.81 µM.
